In the supplement of paper PMC5998384:

Legend:
[1] = tested on: HeLa Kyoto; experiment: solubility in G1/S (NP-40 vs SDS abundance) (log2 ratio); higher = more soluble; details: cell cycle stage: G1/S
[2] = tested on: HeLa Kyoto; experiment: solubility change mitosis vs G1/S (difference of NP-40 vs SDS log2 ratios) (log2 ratio difference); higher = more soluble in mitosis
[3] = tested on: HeLa Kyoto; experiment: melting temperature (median over replicates), in situ; higher = more thermally stable; details: cell cycle stage: mitosis
[4] = tested on: HeLa Kyoto; experiment: thermal stability score vs G1/S (z-score of summed log2 fold changes over temperatures); higher = more thermally stable than in G1/S
[5] = cell cycle stage: early G1 (4.5 h after nocodazole release)
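Wherever melting temperature (median over replicates), in situ is given: HeLa Kyoto cells synchronized by double thymidine or nocodazole block, proteins quantified by TMT10plex mass spectrometry, three independent biological replicates.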
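Wherever solubility change mitosis vs G1/S (difference of NP-40 vs SDS log2 ratios) is given: synchronized HeLa Kyoto cells (double thymidine block for G1/S, nocodazole release for mitosis), protein amounts in NP-40 versus SDS lysates quantified by mass spectrometry, three biological replicates.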
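Wherever solubility in G1/S (NP-40 vs SDS abundance) is given: HeLa Kyoto cells arrested at G1/S by double thymidine block, proteins quantified by TMT10plex mass spectrometry in mild NP-40 versus SDS extracts, three biological replicates.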
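Wherever thermal stability score vs G1/S (z-score of summed log2 fold changes over temperatures) is given: synchronized HeLa Kyoto cells, proteins quantified by TMT10plex mass spectrometry, three biological replicates, mitosis taken 0.5 h after nocodazole release, G1/S directly after double thymidine block.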

Chain of ERGIC3 (chain, as listed by the source): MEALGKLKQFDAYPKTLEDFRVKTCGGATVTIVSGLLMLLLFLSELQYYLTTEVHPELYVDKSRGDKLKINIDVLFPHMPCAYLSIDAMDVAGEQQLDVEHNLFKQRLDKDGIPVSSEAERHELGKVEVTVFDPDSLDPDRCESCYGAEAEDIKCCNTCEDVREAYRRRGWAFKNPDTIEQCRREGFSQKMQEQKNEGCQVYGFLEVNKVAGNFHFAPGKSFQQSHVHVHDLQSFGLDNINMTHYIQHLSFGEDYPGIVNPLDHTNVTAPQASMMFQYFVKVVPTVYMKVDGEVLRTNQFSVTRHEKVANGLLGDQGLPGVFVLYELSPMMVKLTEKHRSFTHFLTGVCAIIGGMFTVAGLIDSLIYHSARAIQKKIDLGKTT

Substance | solubility in G1/S (log2) [1] | solubility change mitosis (log2) [2] | melting temperature [3] [°C] | thermal stability score [4, 5] | thermal stability score ([4]; cell cycle stage: mitosis)
MSKKKGLSAEEKRTRMMEIFSETKDVFQLKDLEKIAPKEKGITAMSVKEVLQSLVDDGMVDCERIGTSNYYWAFPSKALHARKHKLEVLESQLSEGSQKHASLQKSIEKAKIGRCETEERTRLAKELSSLRDQREQLKAEVEKYKDCDPQVVEEIRQANKVAKEAANRWTDNIFAIKSWAKRKFGFEENKIDRTFGIPEDFDYID [MND1] | 0.61 | -0.05 | – | – | –
MSVDPMTYEAQFFGFTPQTCMLRIYIAFQDYLFEVMQAVEQVILKKLDGIPDCDISPVQIRKCTEKFLCFMKGHFDNLFSKMEQLFLQLILRIPSNILLPEDKCKETPYSEEDFQHLQKEIEQLQEKYKTELCTKQALLAELEEQKIVQAKLKQTLTFFDELHNVGRDHGTSDFRESLVSLVQNSRKLQNIRDNVEKESKRLKIS [MIS12] | -0.177 | 0.259 | – | – | –
MATSLDFKTYVDQACRAAEEFVNIYYETMDKRRRALTRLYLDKATLIWNGNAVSGLDALNNFFDTLPSSEFQVNMLDCQPVHEQATQSQTTVLVVTSGTVKFDGNKQHFFNQNFLLTAQSTPNNTVWKIASDCFRFQDWSSS [NXT2] | -0.596 | 0.401 | – | – | –
MEVEDSGGVVLTAYHSYARAQPPNAESRCAPRAAASHPLSRKSIPRCRRINRMLSNESLHPPAFSRSNSEASVDSASMEDFWREIESIKDSSMGGQEEPPPAEVTPVDEGELEAEWLQDVGLSTLISGDEEEDGKALLSTLTRTQAAAVQKRYHTYTQTMRKKDKQSIRDVRDIFGVSESPPRDTCGNHTNQLDGTKEERELPRVIKTSGSMPDDASLNSTTLSDASQDKEGSFAVPRSDSVAILETIPVLPVHSNGSPEPGQPVQNAISDDDFLEKNIPPEAEELSFEVSYSEMVTEALKRNKLKKSEIKKEDYVLTKFNVQKTRFGLTEAGDLSAEDMKKIRHLSLIELTAFFDAFGIQLKRNKTEKVKGRDNGIFGVPLTVLLDGDRKKDPGVKVPLVLQKFFEKVEESGLESEGIFRLSGCTAKVKQYREELDAKFNADKFKWDKMCHREAAVMLKAFFRELPTSLFPVEYIPAFISLMERGPHVKVQFQALHLMVMALPDANRDAAQALMTFFNKVIANESKNRMSLWNISTVMAPNLFFSRSKHSDYEELLLANTAAHIIRLMLKYQKILWKVPSFLITQVRRMNEATMLLKKQLPSVRKLLRRKTLERETASPKTSKVLQKSPSARRMSDVPEGVIRVHAPLLSKVSMAIQLNNQTKAKDILAKFQYENSHGSSECIKIQNQRLYEIGGNIGEHCLDPDAYILDVYRINPQAEWVIKPQQSS [ARHGAP28] | 0.167 | 0.00445 | – | – | –
MASSGAGDPLDSKRGEAPFAQRIDPTREKLTPEQLHSMRQAELAQWQKVLPRRRTRNIVTGLGIGALVLAIYGYTFYSISQERFLDELEDEAKAARARALARASGS [COA3] | -0.65 | 0.902 | – | – | –
MAESSSESDHFRCRDRLSPWAARSTHRGTRSLPTVEVTEKVNTITSTLQDTSRNLRQVDQMLGRYREYSNGQAGAIEHLKESLEQSIDQLRSQRLLRNSGGRSISVTSLSASDLDGGTGSELHHFPPTSPLKDYGDPQGIKRMRSRTGVRFVQETDDMTQLHGFHQSLRDLSSEQIRLGDDFNRELSRRSRSDAETKRALEELTEKLNEAQKQEVVSDRVERRLQELEREMRTERELVERRQDQLGLMSLQLQEALKKQEAKADEHEGAIKNKLRQTETEKNQLEQELELSRRLLNQSEGSRETLLHQVEELRTQLTKAEGDRKGLQHQVSQISKQQSNYQDEQGEDWRFRRGVEREKQDLEKQMSDLRVQLNFSAMASELEEVKRCMERKDKEKAHLASQVENLTRELENGEKQQLQMLDRLKEIQNHFDTCEAERKHADLQISELTRHAEDATKQAERYLSELQQSEALKEEAEKRREDLKLKAQESIRQWKLKHKKLERALEKQSETVDELTGKNNQILKEKDELKTQLYAALQQIENLRKELNDVLTKRALQEEELHSKEEKLRDIKSHQADLELEVKNSLDTIHRLESELKKQSKIQSQMKVEKAHLEEEIAELKKSQAQDKAKLLEMQESIKDLSAIRADLANKLAEEERAKKAVLKDLSDLTAQAKSRDEETATIITQLKLERDVHQRELKDLTSSLQSVKTKHEQNIQELMKHFKKEKSEAENHIRTLKAESLEEKNMAKIHRGQLEKLKSQCDRLTEELTQNENENKKLKLKYQCLKDQLEEREKHISIEEEHLRRMEEARLQLKDQLLCLETEQESILGVIGKEIDAACKTFSKDSVEKLKVFSSGPDIHYDPHRWLAESKTKLQWLCEELKERENREKNLRHQLMLCRQQLRNLTENKESELQCLFQQIERQEQLLDEIHREKRDLLEETQRKDEEMGSLQDRVIALETSTQVALDHLESVPEKLSLLEDFKDFRDSCSSSERTDGRYSKYRVRRNSLQHHQDDTKYRTKSFKGDRTFLEGSHTRGLDHSSSWQDHSRFLSSPRFSYVNSFTKRTVAPDSASNKEDATMNGTSSQPKKEEYGS [CEP128] | 0.351 | -0.182 | – | – | –
MPGIDKLPIEETLEDSPQTRSLLGVFEEDATAISNYMNQLYQAMHRIYDAQNELSAATHLTSKLLKEYEKQRFPLGGDDEVMSSTLQQFSKVIDELSSCHAVLSTQLADAMMFPITQFKERDLKEILTLKEVFQIASNDHDAAINRYSRLSKKRENDKVKYEVTEDVYTSRKKQHQTMMHYFCALNTLQYKKKIALLEPLLGYMQAQISFFKMGSENLNEQLEEFLANIGTSVQNVRREMDSDIETMQQTIEDLEVASDPLYVPDPDPTKFPVNRNLTRKAGYLNARNKTGLVSSTWDRQFYFTQGGNLMSQARGDVAGGLAMDIDNCSVMAVDCEDRRYCFQITSFDGKKSSILQAESKKDHEEWICTINNISKQIYLSENPEETAARVNQSALEAVTPSPSFQQRHESLRPAAGQSRPPTARTSSSGSLGSESTNLAALSLDSLVAPDTPIQFDIISPVCEDQPGQAKAFGQGGRRTNPFGESGGSTKSETEDSILHQLFIVRFLGSMEVKSDDHPDVVYETMRQILAARAIHNIFRMTESHLLVTCDCLKLIDPQTQVTRLTFPLPCVVLYATHQENKRLFGFVLRTSSGRSESNLSSVCYIFESNNEGEKICDSVGLAKQIALHAELDRRASEKQKEIERVKEKQQKELNKQKQIEKDLEEQSRLIAASSRPNQASSEGQFVVLSSSQSEESDLGEGGKKRESEA [APPL1] | 0.05 | – | 50.4 | – | –
MFYAHFVLSKRGPLAKIWLAAHWDKKLTKAHVFECNLESSVESIISPKVKMALRTSGHLLLGVVRIYHRKAKYLLADCNEAFIKIKMAFRPGVVDLPEENREAAYNAITLPEEFHDFDQPLPDLDDIDVAQQFSLNQSRVEEITMREEVGNISILQENDFGDFGMDDREIMREGSAFEDDDMLVSTTTSNLLLESEQSTSNLNEKINHLEYEDQYKDDNFGEGNDGGILDDKLISNNDGGIFDDPPALSEAGVMLPEQPAHDDMDEDDNVSMGGPDSPDSVDPVEPMPTMTDQTTLVPNEEEAFALEPIDITVKETKAKRKRKLIVDSVKELDSKTIRAQLSDYSDIVTTLDLAPPTKKLMMWKETGGVEKLFSLPAQPLWNNRLLKLFTRCLTPLVPEDLRKRRKGGEADNLDEFLKEFENPEVPREDQQQQHQQRDVIDEPIIEEPSRLQESVMEASRTNIDESAMPPPPPQGVKRKAGQIDPEPVMPPQQVEQMEIPPVELPPEEPPNICQLIPELELLPEKEKEKEKEKEDDEEEEDEDASGGDQDQEERRWNKRTQQMLHGLQRALAKTGAESISLLELCRNTNRKQAAAKFYSFLVLKKQQAIELTQEEPYSDIIATPGPRFHII [RAD21] | – | -0.0219 | – | -1.05 | -1.37
MSALEKSMHLGRLPSRPPLPGSGGSQSGAKMRMGPGRKRDFSPVPWSQYFESMEDVEVENETGKDTFRVYKSGSEGPVLLLLHGGGHSALSWAVFTAAIISRVQCRIVALDLRSHGETKVKNPEDLSAETMAKDVGNVVEAMYGDLPPPIMLIGHSMGGAIAVHTASSNLVPSLLGLCMIDVVEGTAMDALNSMQNFLRGRPKTFKSLENAIEWSVKSGQIRNLESARVSMVGQVKQCEGITSPEGSKSIVEGIIEEEEEDEEGSESISKRKKEDDMETKKDHPYTWRIELAKTEKYWDGWFRGLSNLFLSCPIPKLLLLAGVDRLDKDLTIGQMQGKFQMQVLPQCGHAVHEDAPDKVAEAVATFLIRHRFAEPIGGFQCVFPGC [PPME1] | – | 0.0133 | – | -0.13 | -0.609
ERGIC3 | – | -0.0891 | – | -2.7 | -7.02
MAASSSGEKEKERLGGGLGVAGGNSTRERLLSALEDLEVLSRELIEMLAISRNQKLLQAGEENQVLELLIHRDGEFQELMKLALNQGKIHHEMQVLEKEVEKRDSDIQQLQKQLKEAEQILATAVYQAKEKLKSIEKARKGAISSEEIIKYAHRISASNAVCAPLTWVPGDPRRPYPTDLEMRSGLLGQMNNPSTNGVNGHLPGDALAAGRLPDVLAPQYPWQSNDMSMNMLPPNHSSDFLLEPPGHNKENEDDVEIMSTDSSSSSSESD [MED4] | – | -0.0345 | – | -1.56 | -1.18
MFSWMGRQAGGRERAGGADAVQTVTGGLRSLYLRKVLPLEEAYRFHEFHSPALEDADFENKPMILLVGQYSTGKTTFIRYLLEQDFPGMRIGPEPTTDSFIAVMYGETEGSTPGNALVVDPKKPFRKLSRFGNAFLNRFMCSQLPNQVLKSISVIDSPGILSGEKQRISRGYDFCQVLQWFAERVDRIILLFDAHKLDISDEFSEAIKAFRGQDDKIRVVLNKADQVDTQQLMRVYGALMWSLGKVINTPEVLRVYIGSFWAQPLQNTDNRRLFEAEAQDLFRDIQSLPQKAAVRKLNDLIKRARLAKVHAYIISYLKKEMPSVFGKENKKRELISRLPEIYIQLQREYQISAGDFPEVKAMQEQLENYDFTKFHSLKPKLIEAVDNMLSNKISPLMNLISQEETSTPTQLVQGGAFDGTTEGPFNQGYGEGAKEGADEEEWVVAKDKPVYDELFYTLSPINGKISGVNAKKEMVTSKLPNSVLGKIWKLADCDCDGMLDEEEFALAKHLIKIKLDGYELPSSLPPHLVPPSHRKSLPKAD [EHD4] | 0.226 | – | 50.4 | – | –
RPS7 | – | 0.675 | – | – | –
MRPS12 | – | 0.0958 | – | – | –
ATP1A1 | – | -0.0968 | – | – | –
YTHDC1 | – | -0.0521 | – | – | –
MGGSGSRLSKELLAEYQDLTFLTKQEILLAHRRFCELLPQEQRSVESSLRAQVPFEQILSLPELKANPFKERICRVFSTSPAKDSLSFEDFLDLLSVFSDTATPDIKSHYAFRIFDFDDDGTLNREDLSRLVNCLTGEGEDTRLSASEMKQLIDNILEESDIDRDGTINLSEFQHVISRSPDFASSFKIVL [CIB1] | – | -0.0256 | – | – | –
ATP1B1 | – | -0.0049 | – | – | –
EIF6 | – | 0.0864 | – | – | –
AKR1B1 | – | -0.0682 | – | – | –
